# Measured values as given in the supplement of paper PMC7125110.
# ± gives the standard error. For some assays here: Variants at the floor of the assay were thinned out.
# B1: glmS ribozyme (parent)
# chain: AUAAAAGCGCCAGAACUACAGAAAUGUAGUUGACGAGGAGGAGGUUUAUCGAAUUUUCGGCGGAUGCCUCCAAA
# Tests used:
# Conditions in all cases: with glucosamine-6-phosphate
# glucosamine-6-phosphate [1] = variants of: B1; assay: kcat; higher = faster cleavage; RNA array
# Summary of the method: (§1)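 Sequenced MiSeq chips were the platform: E. coli RNA polymerase transcribed barcoded ribozyme variants on them in situ, and a hybridised Cy3 probe tracked these at 37 °C. After glucosamine-6-phosphate (40 μM to 10 mM) in HEPES/KCl/Mg(OAc)2 buffer was flowed in, tiles were imaged over ~14 h. Signals normalised to baseline and to non-cleaving reference variants were reduced to per-tile medians and fit to one- or two-exponential decays to obtain kobs. kcat and KM were derived through weighted Michaelis–Menten fits across concentrations.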
# glucosamine-6-phosphate [2] = variants of: B1; assay: KM; higher = weaker cofactor use; RNA array
# Summary of the method: as §1
# glucosamine-6-phosphate [3] = variants of: B1; assay: self-cleavage kobs at 640 uM GlcN6P; higher = faster cleavage; RNA array
# Summary of the method: as §1
# glucosamine-6-phosphate [4] = variants of: B1; assay: self-cleavage kobs at 2500 uM GlcN6P; higher = faster cleavage; RNA array
# Summary of the method: as §1
# glucosamine-6-phosphate [5] = variants of: B1; assay: self-cleavage kobs at 10000 uM GlcN6P; higher = faster cleavage; RNA array
# Summary of the method: as §1
# glucosamine-6-phosphate [6] = variants of: B1; assay: self-cleavage kobs at 160 uM GlcN6P; higher = faster cleavage; RNA array
# Summary of the method: as §1
# glucosamine-6-phosphate [7] = variants of: B1; assay: self-cleavage kobs at 40 uM GlcN6P; higher = faster cleavage; RNA array
# Summary of the method: as §1
Variant,kcat (glucosamine-6-phosphate [1]),KM (glucosamine-6-phosphate [2]),self-cleavage kobs at 640 uM GlcN6P (glucosamine-6-phosphate [3]),self-cleavage kobs at 2500 uM GlcN6P (glucosamine-6-phosphate [4]),self-cleavage kobs at 10000 uM GlcN6P (glucosamine-6-phosphate [5]),self-cleavage kobs at 160 uM GlcN6P (glucosamine-6-phosphate [6]),self-cleavage kobs at 40 uM GlcN6P (glucosamine-6-phosphate [7])
AUAAAAGCGCCAGAACUACAGAAAUGUAGUUGACGAGGAGGAGGUUUGUCGAAGUUUCGGCGGAUGCCUCCAAA [A48G U54G],0.000141 ± 9.6e-06 s⁻¹,761 ± 180 µM,6.14e-05 ± 1.1e-05 s⁻¹,0.000134 ± 2.5e-05 s⁻¹,0.000127 ± 1.2e-05 s⁻¹,,
AUAAAAGCGCCAGAACUACAGAAAUGUAGUUGACGAGGAGGAGGUUUUUCGAAGUUUCGGCGGAUGCCUCCAAA [A48U U54G],0.000434 ± 0.00011 s⁻¹,,8.39e-05 ± 4.1e-05 s⁻¹,0.000261 ± 0.0001 s⁻¹,0.000397 ± 9.1e-05 s⁻¹,6.29e-05 ± 1.9e-05 s⁻¹,
AUAAAAGCGCCAGAACUACAGAAAUGUAGUUGACGAGGAGGAGGUUUUUCGAACUUUCGGCGGAUGCCUCCAAA [A48U U54C],0.000526 ± 0.00015 s⁻¹,,5.32e-05 ± 1.7e-05 s⁻¹,0.000255 ± 5.1e-05 s⁻¹,0.000349 ± 6.3e-05 s⁻¹,,
AUAAAAGCGCCAGAACUACAGAAAUGUAGUUGACGAGGAGGAGGUUUUUCGAAUAUUCGGCGGAUGCCUCCAAA [A48U U55A],0.000475 ± 0.0001 s⁻¹,1310 ± 530 µM,0.000183 ± 2.7e-05 s⁻¹,0.000269 ± 3.9e-05 s⁻¹,0.000532 ± 0.0001 s⁻¹,4.63e-05 ± 1.3e-05 s⁻¹,
AUAAAAGCGCCAGAACUACAGAAAUGUAGUUGACGAGGAGGAGGUUUUUCGGAUUUUCGGCGGAUGCCUCCAAA [A48U A52G],1.32e-05 ± 2.9e-06 s⁻¹,,,,,,
AUAAAAGCGCCAGAACUACAGAAAUGUAGUUGACGAGGAGGAGGUUUGUCGACUUUUCGGCGGAUGCCUCCAAA [A48G A53C],5.9e-05 ± 9.7e-06 s⁻¹,,,7.97e-05 ± 1.7e-05 s⁻¹,5.4e-05 ± 7.2e-06 s⁻¹,,
AUAAAAGCGCCAGAACUACAGAAAUGUAGUUGACGAGGAGGAGGUUUGUCGAGUUUUCGGCGGAUGCCUCCAAA [A48G A53G],0.00014 ± 3.1e-05 s⁻¹,,,8.53e-05 ± 1.3e-05 s⁻¹,0.000105 ± 1.2e-05 s⁻¹,,
AUAAAAGCGCCAGAACUACAGAAAUGUAGUUGACGAGGAGGAGGUUUGUCGAAUUUUCGGCGGAUGCGUCCAAA [A48G C68G],5.98e-05 ± 7.3e-06 s⁻¹,,7.32e-05 ± 1.6e-05 s⁻¹,5.41e-05 ± 1.2e-05 s⁻¹,5.84e-05 ± 8.1e-06 s⁻¹,,4.65e-05 ± 1.2e-05 s⁻¹
AUAAAAGCGCCAGAACUACAGAAAUGUAGUUGACGAGGAGGAGGUUUUUCGAUUUUUCGGCGGAUGCCUCCAAA [A48U A53U],0.000308 ± 4.1e-05 s⁻¹,1960 ± 750 µM,0.000104 ± 3.1e-05 s⁻¹,0.000161 ± 2e-05 s⁻¹,0.000265 ± 2.8e-05 s⁻¹,,
AUAAAAGCGCCAGAACUACAGAAAUGUAGUUGACGAGGAGGAGGUUUUUCGAAUUUUCGGCGGAUUCCUCCAAA [A48U G66U],2.75e-05 ± 2.7e-06 s⁻¹,,,,2.42e-05 ± 8e-06 s⁻¹,,
AUAAAAGCGCCAGAACUACAGAAAUGUAGUUGACGAGGAGGAGGUUUGUCGAAUUUUCGGCGGAUGCCUUCAAA [A48G C70U],0.000237 ± 3.3e-05 s⁻¹,1840 ± 620 µM,5.39e-05 ± 1.1e-05 s⁻¹,0.000179 ± 2.8e-05 s⁻¹,0.000192 ± 2.1e-05 s⁻¹,,
AUAAAAGCGCCAGAACUACAGAAAUGUAGUUGACGAGGAGGAGGUUUGUCGAAUUUUCGGCGGAUGCCUACAAA [A48G C70A],4.63e-05 ± 4.7e-06 s⁻¹,,,4.55e-05 ± 1.2e-05 s⁻¹,4.22e-05 ± 6.5e-06 s⁻¹,,
AUAAAAGCGCCAGAACUACAGAAAUGUAGUUGACGAGGAGGAGGUUUGUCGAAUGUUCGGCGGAUGCCUCCAAA [A48G U55G],9.18e-05 ± 6.4e-06 s⁻¹,759 ± 210 µM,4.19e-05 ± 7.6e-06 s⁻¹,0.000108 ± 3.8e-05 s⁻¹,8.43e-05 ± 7.8e-06 s⁻¹,,< 1e-05 s⁻¹
AUAAAAGCGCCAGAACUACAGAAAUGUAGUUGACGAGGAGGAGGUUUGUCGAAUAUUCGGCGGAUGCCUCCAAA [A48G U55A],0.000106 ± 2.6e-06 s⁻¹,1160 ± 180 µM,,7.8e-05 ± 3.7e-05 s⁻¹,9.5e-05 ± 8.9e-06 s⁻¹,,
AUAAAAGCGCCAGAACUACAGAAAUGUAGUUGACGAGGAGGAGGUUUUUCGAAUACUCGGCGGAUGCCUCCAAA [A48U U55A U56C],4.34e-05 ± 3.5e-06 s⁻¹,,,3.8e-05 ± 1.3e-05 s⁻¹,4.04e-05 ± 1e-05 s⁻¹,,
AUAAAAGCGCCAGAACUACAGAAAUGUAGUUGACGAGGAGGAGGUUUCUCGAAUUUUCGGCGGAUGCCCCCAAA [A48C U69C],7.16e-05 ± 1.1e-05 s⁻¹,,6.02e-05 ± 1.9e-05 s⁻¹,9.22e-05 ± 2.4e-05 s⁻¹,6.44e-05 ± 1.5e-05 s⁻¹,< 1e-05 s⁻¹,< 1e-05 s⁻¹
AUAAAAGCGCCAGAACUACAGAAAUGUAGUUGACGAGGAGGAGGUUUUUCGAAUUUUCGGCGGUUGCCUCCAAA [A48U A64U],0.000129 ± 1.1e-05 s⁻¹,5510 ± 1000 µM,,4.13e-05 ± 1.2e-05 s⁻¹,8.33e-05 ± 1.3e-05 s⁻¹,,
AUAAAAGCGCCAGAACUACAGAAAUGUAGUUGACGAGGAGGAGGUUUGUCGAAUUUCCGGAGGAUGCCUCCAAA [A48G U57C C61A],< 1e-05 s⁻¹,,,< 1e-05 s⁻¹,,,
AUAAAAGCGCCAGAACUACAGAAAUGUAGUUGACGAGGAGGAGGUUUUUCGAAUUUUCGGCGGAAGCCUCCAAA [A48U U65A],5.33e-05 ± 4.6e-06 s⁻¹,,,,,< 1e-05 s⁻¹,
